# According to FireProtDB (doi:10.1074/jbc.271.51.32729):
# Settings: Escherichia coli (strain K12), Thermal, CD, reversible: yes, whole UniProt chain shown
protein,measurement,setting,value
"Ribonuclease HI wild type, P0A7Y4 (protein) MLKQVEIFTDGSCLGNPGPGGYGAILRYRGREKTFSAGYTRTTNNRMELMAAIVALEALKEHCEVILSTDSQYVRQGITQWIHNWKKRGWKTADKKPVKNVDLWQRLDAALGQHQIKWEWVKGHAGHPENERCDELARAAAMNPTLEDTGYQVEV",Tm,"pH 3, glycine-HCl 10 mM",50 °C
same,unfolding enthalpy (van 't Hoff),"pH 3, glycine-HCl 10 mM",95.1 kcal/mol
same,Tm,"pH 9, glycine-NaOH 50 mM",47 °C
